The results in this text go back to PMC12629983, “Nanobody-based recombinant antivenom for cobra, mamba and rinkhals bites” (Nature, 2025).

A value given as a limit tells only on which side of the number the result lay.

Usually Kd stands for the equilibrium constant for the complex coming apart. As usually defined, the koff is a measure of how fast the partners let go of each other. Read a low koff as a long-lived complex. Usually kon stands for the rate constant with which the complex forms. A higher kon goes with fast association.

Conditions in all cases: both partners purified
The target of one test is T1, PLA2-3 (Naja nubiae (Egypt, L1342), fraction …, UniProt P14556).
T1 construct: also called basic phospholipase A2 nigexine (P14556)
In words: cryo-EM structure.

The target of a further test is T2, sNTx-1 (Dendroaspis jamesoni (L1308, Cameroon), …).
T2 chain: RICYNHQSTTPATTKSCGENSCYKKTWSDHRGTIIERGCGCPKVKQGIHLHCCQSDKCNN
In words: BLI; […] (0.5 µg/ml) […], pH 7.2; 600 s association, 600 s dissociation; global 1:1 fit.

Another test addresses T3, sNTx-5 (Hemachatus haemachatus (L1311), …, biotin (EZ-Link NHS-PEG4-Biotin, amine coupling)).
T3 chain: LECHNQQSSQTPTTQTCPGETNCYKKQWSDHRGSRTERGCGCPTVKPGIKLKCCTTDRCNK
The test is described as above.

A further test deals with T4, sNTx-6 (Naja melanoleuca (L1318), fraction Nm3, biotin (EZ-Link NHS-PEG4-Biotin, amine coupling)).
T4 chain: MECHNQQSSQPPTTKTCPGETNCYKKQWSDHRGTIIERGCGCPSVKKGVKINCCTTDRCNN
Described as above.

For the next test, the target named is T5, sNTx-7 (Naja annulifera (L1314), fraction Nan3, biotin (EZ-Link NHS-PEG4-Biotin, amine coupling)).
T5 chain: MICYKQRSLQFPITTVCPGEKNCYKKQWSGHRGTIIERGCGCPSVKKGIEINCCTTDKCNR
The test is described as above.

Test [1] addresses T6, α-short-chain neurotoxin (P01426) from N. pallida (Naja pallida, UniProt P01426).
T6 construct: also called short neurotoxin 1 (P01426); source: bought: Latoxan (lyophilized)
In words: crystal structure.

The next test addresses T7, Og XI-1 (Dendroaspis jamesoni venom (L1308); …).
T7 construct: source: venom fraction isolated from whole venom (Latoxan) by RP-HPLC; biotinylated
T7 chain: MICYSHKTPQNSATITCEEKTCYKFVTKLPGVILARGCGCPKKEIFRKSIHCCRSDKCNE
In words: BLI; […] (0.5 µg/ml) […], pH 7.2; 600 s association, 600 s dissociation; global 1:1 fit.

The next test concerns the target T8, Og XI-2 (Dendroaspis viridis, UniProt P01405).
T8 construct: source: venom fraction isolated from whole venom (Latoxan) by RP-HPLC; biotinylated
Described as above.

Test [2] addresses protein of Hemachatus haemachatus PRINTED:77012629983_21 (Hemachatus haemachatus, fraction Hh9 …). The test is described as above.
The target of test [3] is T9, Cardiotoxin (P01468) from N. pallida (Naja pallida, UniProt P01468).
T9 construct: also called cardiotoxin (UniProt: P01468); source: bought: Latoxan (lyophilized)
In words: crystal structure.

A further test has as its target CTx-10 (Naja pallida (Kenya, L1321)); Latoxan …, UniProt P01468, biotin (EZ-Link NHS-PEG4-Biotin, amine coupling)). As to the kind of experiment: BLI; […], pH 7.2; 600 s association, 600 s dissociation; global 1:1 fit. (Biolayer interferometry detects binding as a change in optical thickness at a sensor tip.)
The target of a further test is T10, KUN-1 (Dendroaspis jamesoni (L1308, Cameroon), …, biotin (EZ-Link NHS-PEG4-Biotin, amine coupling)).
T10 construct: source: venom fraction isolated from whole venom (Latoxan) by RP-HPLC; biotinylated
T10 chain: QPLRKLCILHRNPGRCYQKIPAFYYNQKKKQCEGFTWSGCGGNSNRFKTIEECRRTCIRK
In words: BLI; […] (0.5 µg/ml) […], pH 7.2; 600 s association, 600 s dissociation; global 1:1 fit.

Test [4] has as its target T11, KUN-2 (Dendroaspis polylepis (L1309), fraction …, biotin (EZ-Link NHS-PEG4-Biotin, amine coupling)).
T11 construct: source: venom fraction isolated from whole venom (Latoxan) by RP-HPLC; biotinylated
T11 chain: T10 chain
The test is described as above.

For test [5], the target named is KUN-2 (Dendroaspis polylepis (L1309), UniProt P00979, biotin (EZ-Link NHS-PEG4-Biotin, amine coupling)). In words: BLI; […], pH 7.2; 600 s association, 600 s dissociation; global 1:1 fit.
A further test deals with T12, lNTx-3 (Dendroaspis polylepis (L1309), fraction …, biotin (EZ-Link NHS-PEG4-Biotin, amine coupling)).
T12 chain: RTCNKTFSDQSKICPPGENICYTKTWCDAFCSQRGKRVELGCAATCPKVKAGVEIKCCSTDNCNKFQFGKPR
As to the kind of experiment: BLI; […] (0.5 µg/ml) […], pH 7.2; 600 s association, 600 s dissociation; global 1:1 fit.

The target in the next test is T13, lNTx-7 (Naja kaouthia (Latoxan L8114), biotin (EZ-Link NHS-PEG4-Biotin, amine coupling)).
T13 chain: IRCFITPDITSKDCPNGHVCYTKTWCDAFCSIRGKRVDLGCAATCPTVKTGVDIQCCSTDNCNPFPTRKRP
The description is as above.

T6 sequence (P01426 whole entry, one chain of several): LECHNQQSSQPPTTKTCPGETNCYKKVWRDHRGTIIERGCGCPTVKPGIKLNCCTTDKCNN
T9 sequence (P01468 whole entry, looked up, one chain of several): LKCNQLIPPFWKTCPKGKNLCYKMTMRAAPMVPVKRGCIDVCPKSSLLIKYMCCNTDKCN
Sequence of CTx-10 (Naja pallida (Kenya, L1321)); Latoxan …, UniProt P01468, biotin (EZ-Link NHS-PEG4-Biotin, amine coupling)) (P01468 whole entry, looked up): as the sequence (P01468 whole entry, looked up, one chain of several) above
T1 sequence (P14556 whole entry): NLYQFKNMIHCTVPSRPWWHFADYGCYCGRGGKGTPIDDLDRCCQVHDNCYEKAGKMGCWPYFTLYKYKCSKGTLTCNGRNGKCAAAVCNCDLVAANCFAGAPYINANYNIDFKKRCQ

B1: VHH20 a-PLA2 (VHH)
VHH: QVQLQESGGGLAQAGGSLRLSCAASGLAFSNYSMGWARQAPGKEREFVAAISWSHQPTYYADSVKGRFTISRDNAKNTLYLQMNSLKPEDTAVYYCAADSRPNSYRLGGPGNYWGQGTQVTVSS
notes: also called anti-PLA2 VHH
On to B1, for which the binding result in the test with PLA2-3 was “binds”.

B2: VHH5 a-sNTx (VHH)
VHH: QVQLQESGGGLVRPGGSLRLSCAVSGVSESIFANYVVGWFRQQDSGTGRDLVAQSSSDDEYNHVSGSVKGRFTISRDNAKNTVSLQMDNLKPEDTAIYICAAAIGPGDNYIYWGQGTQVTVSS
notes: source: E. coli BL21 (DE3), purified (Ni resin)
Take B2: the Kd is 1.9 nM with sNTx-1, 16.9 nM in the test with sNTx-5, 5.46 nM in the test with sNTx-6 and 0.388 nM with sNTx-7. Also, the koff in the test with sNTx-1 worked out at 4.72e-05 s⁻¹; in the test with sNTx-5 it was 0.000631 s⁻¹; with sNTx-6, 0.000163 s⁻¹; with sNTx-7, 1.44e-05 s⁻¹. The kon with sNTx-1 was determined as 24900 M⁻¹ s⁻¹; with sNTx-5, 37400 M⁻¹ s⁻¹; in the test with sNTx-6, 29800 M⁻¹ s⁻¹; with sNTx-7, 37100 M⁻¹ s⁻¹.

B3: VHH5 a-sNTx (VHH)
VHH: B2 VHH
notes: also called anti-sNTx VHH; source: E. coli BL21 (DE3), purified (Ni-NTA)
Take B3: the binding result in test [1] is recorded as “binds”.

B4: VHH15 a-Og XI (VHH)
VHH: QVQLQESGGGAVPAGGSLTLSCAASGRTLSDYTMGWFRQAPGKEREIVGAISWNDGYTYYDDSVKGRFTISRDNAKNTMYLQMNSLKPEDTAVYYCAAQAPEMVRSGNFGSWGPGTQVTVSS
notes: as for B2
B4: in the test with Og XI-1, the Kd stood at 2.19 nM, the koff is 0.000161 s⁻¹ and the kon is 73400 M⁻¹ s⁻¹. Besides, in the test with Og XI-2, the dissociation constant (Kd) was 2.16 nM, the koff is 0.000122 s⁻¹ and the association rate constant (kon) came out at 56700 M⁻¹ s⁻¹.

B5:  (VHH)
VHH: QVQLQESGGGLVQAGGSLRLSCAASGRTFSSYAMAWFRQAPGKEREFVASISWNGDSTYYADSVKGRFTISGDNAKNTWYLQMKSLKPEDTAVYYCNTEDEGSGTYYEWGQGTQVTVSS
notes: also called VHH1; source: E. coli BL21 (DE3), purified (Ni resin)
Regarding B5, the binding result in test [2] was “no binding (tested: 480 nM)”.

B6:  (VHH)
VHH: B5 VHH
notes: also called anti-CTx VHH; source: E. coli BL21 (DE3), purified (Ni-NTA)
For B6, the binding result (in test [3]; with CTx-10) was “binds” throughout.

B7:  (VHH)
VHH: QVQLQESGGGLVQAGGSLRLSCAAPGFTFDNYAIGWFRQAPGKEREAVSMIDVNDGDTYYADSVKGRFATSIDNARITAYLQMNSLKPEDTAVYYCAAGEQGGIETEDDYGMDYYGKGTQVTVSS
notes: also called VHH4; source: E. coli BL21 (DE3), purified (Ni resin)
Consider B7, for which the binding result in test [2] is listed as “no binding (tested: 480 nM)”.

B8: VHH17 a-KUN (VHH)
VHH: QVQLQESGGGLVQPGGSLRLSCITSGSNFDDLSVGWFRQAPGKEREGVSCFSSSDGSTYYVDSVKGRFTMSRDNAKNTVYLQMNNLKPEDTAVYYCTADGFPYPSETMCSIPGGPDSVAWGQGTQVTVSS
notes: as for B2
B8: in the test with KUN-1, binding was characterised by a dissociation constant (Kd) of 0.0405 nM, the koff stood at 8.43e-07 s⁻¹ and the kon is 20800 M⁻¹ s⁻¹. Further, in the test with KUN-2 [4], the equilibrium dissociation constant (Kd) was < 1 pM, the koff is < 1e-07 s⁻¹ and the kon is 86900 M⁻¹ s⁻¹.

B9: VHH17 a-KUN (VHH)
VHH: B8 VHH
notes: source: E. coli BL21 (DE3), purified (Ni-NTA)
For B9, the binding result in the test with KUN-2 [5] is “binds”.

B10: VHH9 a-lNTx (VHH)
VHH: QVQLQESGGGLVQPGGSLRLSCTASGSIFSTVNTMGWYRQAPGKQRELVAAITGGGSTNYADSVKGRFTISRDNVENTVHLRMNALKPEDTAVYYCNFQEYCSAYGCYELPHDYWGQGTQVTVSS
notes: as for B2
In the case of B10, in the test with lNTx-3, the affinity, expressed as Kd, was 1.18 nM; the off-rate constant (koff) was found to be 0.000203 s⁻¹; the kon amounted to 173000 M⁻¹ s⁻¹. In the test with lNTx-7, this molecule had a Kd of 0.753 nM, an off-rate (koff) of 2.71e-05 s⁻¹ and a kon of 36000 M⁻¹ s⁻¹.
